How the values were obtained:
[1] = test system: neutrophils in LPS-inflamed lungs; settings: mouse, in vivo, iv
Experimental: Mice received IV LPS as a model of sepsis/ARDS and were injected five hours later with liposomes (approx. 5 mg/kg). Lung uptake provides a measure of tropism to marginated neutrophils. D5=5 DBCO per protein (IgG) on the tag. D5=5 DBCO per IgG on the tag. D20=20 per IgG on the tag. 25% chol=25% (moles cholesterol/total moles of lipid) of the lipids in liposomes was cholesterol. 25% cholesterol=25% (moles cholesterol/total moles of lipid) of the lipids in liposomes was cholesterol.
Radiolabeled clone 1A8 anti-Ly6G antibody was administered to determine the location and concentration of neutrophils in naïve mice and mice exposed to intravenous (IV) lipopolysaccharides (LPS) (FIG. 1A).
Previous work has traced the neutrophil response to bacteria in the lungs, determining that pulmonary neutrophils pursue and engulf active bacteria following either intravenous infection or infection of the airspace in the lungs. We injected heat-inactivated, oxidized, and fixed E. coli in naïve and IV-LPS-injured mice.
Neither nanoparticle was functionalized with antibodies or other affinity tags. The protein component of each particle was labeled with ^125I for tracing in biodistributions assessed 30 minutes after IV administration of nanoparticles.
Variants of LDNG structure, crosslinked protein NP structure, and NP structure based on charged protein interactions were traced in naïve control and IV-LPS-injured mice. As examples of highly crystalline protein-based NPs based on site-specific protein interactions (rather than site-indiscriminate interactions leading to crosslinker, gelation, or charge-based protein NPs), we also traced viruses in naïve and LPS-treated mice. Adding in liposomes and polystyrene NPs as example nanostructures not based on protein, we undertook a study to evaluate how aspects of NP structure including size, composition, surface chemistry, and crystallinity impact NP affinity for LPS-injured lungs.

ex vivo human lungs = test system: ex vivo human lungs
Text: Finally, fluorescent or ^125I-labeled LDNGs were infused via arterial catheter into ex vivo human lungs excluded from organ donation due to conditions (including edema and injury) resembling those found in ARDS patients. Immediately prior to LDNG administration, tissue dye was infused via the same catheter to stain regions of the lungs directly perfused by the chosen branch of the pulmonary artery (FIG. 7C). After infusion of LDNGs, phosphate buffered saline infusion rinsed away unbound particles. Perfused regions of the lungs were dissected and divided into ˜1 g segments, divided into regions deemed to have high, medium, or low levels of staining with tissue dye. For lungs receiving fluorescent LDNGs, well-perfused and poorly-perfused regions were selected for sectioning and fluorescent imaging. Fluorescent signal from LDNGs was clearly detectable in sections of well-perfused tissue, but not poorly-perfused tissue (FIG. 7D). In experiments with ^125I-labeled LDNGs, ^131I-labeled ferritin was concurrently infused (i.e. a mix of ferritin and LDNGs was infused) as an internal control particle shown to have no affinity for injured mouse lungs. For LDNGs and ferritin infused into the same lungs via the same branch of the pulmonary artery, LDNGs retained in the lungs at 52.15% initial dose and ferritin retained at 9.27% initial dose (FIG. 7E). […]

| Substance | Lung uptake, percent of initial dose [1] | Retained in the lungs (ex vivo human lungs) | LPS:naïve lung uptake ratio [1] |
| --- | --- | --- | --- |
| bovine albumin: isolated radiolabeled protein | 1.38 % initial dose | – | – |
| ferritin | 0.68 % initial dose | 9.27 % initial dose | 1.15 |
| lysozyme: isolated radiolabeled protein | 1.34 % initial dose | – | – |
| transferrin: isolated radiolabeled protein | 1.45 % initial dose | – | – |
